Assay results published in article PMC9482650, “Quantitative fragmentomics allow affinity mapping of interactomes” (Nature Communications, 2022).

What was measured:
Test in all cases: holdup assay
Parameters in all cases: key: below the threshold = too weak to quantify, mostly under pKd 3.1 to 4
Conditions in all cases: plain residues with an end cap or a label only (N-terminal biotin on a linker: ado-ado)
[1] = molecular target: T1, APBA1_1, Q02410
T1 sequence (Q02410 651-752, limits assumed, looked up): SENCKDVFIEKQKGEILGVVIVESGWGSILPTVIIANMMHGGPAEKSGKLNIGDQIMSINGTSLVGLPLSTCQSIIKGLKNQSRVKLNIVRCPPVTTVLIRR

[2] = molecular target: T2, APBA1_2, Q02410
T2 sequence (Q02410 742-832, limits assumed, looked up): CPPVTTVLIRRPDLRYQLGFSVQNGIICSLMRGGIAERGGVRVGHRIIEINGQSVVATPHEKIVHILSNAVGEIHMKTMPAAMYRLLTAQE

[3] = molecular target: DLG1_1, Q12959
[4] = molecular target: DLG4_1, P78352
[5] = molecular target: DLG4_3, P78352
[6] = molecular target: T3, DVL3, Q92997
T3 sequence (Q92997 244-331, limits assumed, looked up): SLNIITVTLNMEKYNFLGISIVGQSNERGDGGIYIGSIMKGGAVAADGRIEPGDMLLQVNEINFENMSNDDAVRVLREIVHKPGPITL

[7] = molecular target: FRMPD2_1, Q68DX3
[8] = molecular target: GIPC2, Q8TF65
[9] = molecular target: GORASP2, Q9H8Y8
[10] = molecular target: T4, GRIP1_5, Q9Y3R0
T4 sequence (Q9Y3R0 568-668, limits assumed, looked up): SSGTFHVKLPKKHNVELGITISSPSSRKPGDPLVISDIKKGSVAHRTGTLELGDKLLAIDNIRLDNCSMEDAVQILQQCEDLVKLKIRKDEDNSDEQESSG

[11] = molecular target: GRIP2_4, Q9C0E4
[12] = molecular target: GRIP2_7, Q9C0E4
[13] = molecular target: IL16_3, Q14005
[14] = molecular target: Inadl_10, Q8NI35
[15] = molecular target: Inadl_8, Q8NI35
[16] = molecular target: LIMK2, P53671
[17] = molecular target: T5, LIN7C, Q9NUP9
T5 sequence (Q9NUP9 88-185, limits assumed, looked up): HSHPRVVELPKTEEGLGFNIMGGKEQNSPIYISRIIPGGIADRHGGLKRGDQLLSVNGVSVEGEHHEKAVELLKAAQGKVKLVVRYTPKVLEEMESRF

[18] = molecular target: T6, LNX2_3, Q8N448
T6 sequence (Q8N448 463-564, limits assumed, looked up): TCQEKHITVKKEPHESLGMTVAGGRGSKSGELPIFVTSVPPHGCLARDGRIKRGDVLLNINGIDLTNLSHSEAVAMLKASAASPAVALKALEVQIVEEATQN

[19] = molecular target: MAST2, Q6P0Q8
[20] = molecular target: T7, MPDZ_12, O75970
T7 sequence (O75970 1857-1958, limits assumed, looked up): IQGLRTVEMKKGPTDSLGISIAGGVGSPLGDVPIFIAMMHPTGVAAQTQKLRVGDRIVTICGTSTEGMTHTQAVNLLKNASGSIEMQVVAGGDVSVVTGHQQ

[21] = molecular target: T8, NHERF3_4, Q5T2W1
T8 sequence (Q5T2W1 373-468, limits assumed, looked up): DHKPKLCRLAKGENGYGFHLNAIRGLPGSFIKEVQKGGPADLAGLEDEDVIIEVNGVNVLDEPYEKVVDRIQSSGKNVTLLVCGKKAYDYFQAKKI

[22] = molecular target: NHERF4_4, Q86UT5
[23] = molecular target: T9, PDZD2_2, O15018
T9 sequence (O15018 329-429, limits assumed, looked up): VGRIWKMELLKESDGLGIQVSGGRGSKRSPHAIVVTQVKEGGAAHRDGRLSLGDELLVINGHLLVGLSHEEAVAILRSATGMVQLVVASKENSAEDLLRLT

[24] = molecular target: PTPN3, P26045
[25] = molecular target: SCRIB_2, Q14160
[26] = molecular target: T10, SNTG1, Q9NSN8
T10 sequence (Q9NSN8 52-150, limits assumed, looked up): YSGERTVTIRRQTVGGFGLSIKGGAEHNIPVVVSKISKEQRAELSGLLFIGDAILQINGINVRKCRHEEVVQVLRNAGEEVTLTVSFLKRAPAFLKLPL

[27] = molecular target: T11, SNTG2, Q9NY99
T11 sequence (Q9NY99 68-166, limits assumed, looked up): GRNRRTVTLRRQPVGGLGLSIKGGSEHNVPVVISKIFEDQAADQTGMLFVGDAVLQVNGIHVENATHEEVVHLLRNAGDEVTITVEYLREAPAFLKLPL

Sequence of GIPC2, Q8TF65 (Q8TF65 112-203): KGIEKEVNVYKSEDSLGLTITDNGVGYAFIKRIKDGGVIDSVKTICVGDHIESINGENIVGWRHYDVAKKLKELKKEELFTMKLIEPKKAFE
Sequence of GRIP2_4, Q9C0E4 (Q9C0E4 446-548): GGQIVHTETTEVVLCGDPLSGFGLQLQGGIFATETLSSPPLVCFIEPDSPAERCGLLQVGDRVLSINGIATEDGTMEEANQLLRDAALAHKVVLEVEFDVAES
Sequence of SCRIB_2, Q14160 (Q14160 857-960): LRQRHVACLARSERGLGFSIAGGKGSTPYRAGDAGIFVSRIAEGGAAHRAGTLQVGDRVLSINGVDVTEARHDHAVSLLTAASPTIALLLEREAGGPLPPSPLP
Sequence of NHERF4_4, Q86UT5 (Q86UT5 464-550): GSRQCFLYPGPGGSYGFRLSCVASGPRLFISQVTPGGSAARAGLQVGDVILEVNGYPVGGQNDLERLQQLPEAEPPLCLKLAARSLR
Sequence of PTPN3, P26045 (P26045 505-587): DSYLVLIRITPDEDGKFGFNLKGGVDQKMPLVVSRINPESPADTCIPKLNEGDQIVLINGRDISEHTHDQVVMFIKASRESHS
Sequence of Inadl_10, Q8NI35 (Q8NI35 1673-1763): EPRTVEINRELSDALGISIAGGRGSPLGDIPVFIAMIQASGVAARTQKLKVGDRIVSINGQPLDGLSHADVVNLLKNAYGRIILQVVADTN
Sequence of FRMPD2_1, Q68DX3 (Q68DX3 770-861): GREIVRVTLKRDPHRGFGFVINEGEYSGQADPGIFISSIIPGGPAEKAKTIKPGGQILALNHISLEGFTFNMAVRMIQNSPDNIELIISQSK
Sequence of Inadl_8, Q8NI35 (Q8NI35 1425-1530): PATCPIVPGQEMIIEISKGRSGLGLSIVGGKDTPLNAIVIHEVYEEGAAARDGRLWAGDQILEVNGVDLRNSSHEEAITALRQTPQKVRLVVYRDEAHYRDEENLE
Sequence of LIMK2, P53671 (P53671 143-248): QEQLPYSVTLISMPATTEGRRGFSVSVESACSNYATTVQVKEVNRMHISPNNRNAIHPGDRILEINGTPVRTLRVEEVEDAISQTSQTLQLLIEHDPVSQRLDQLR
Sequence of DLG4_1, P78352 (P78352 62-152): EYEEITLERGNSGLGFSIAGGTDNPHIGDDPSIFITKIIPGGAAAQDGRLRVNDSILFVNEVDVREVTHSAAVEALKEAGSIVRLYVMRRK
Sequence of GRIP2_7, Q9C0E4 (Q9C0E4 934-1023): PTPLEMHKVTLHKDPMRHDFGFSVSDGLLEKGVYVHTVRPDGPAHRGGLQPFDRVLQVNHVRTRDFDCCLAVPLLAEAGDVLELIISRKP
Sequence of IL16_3, Q14005 (Q14005 1107-1207): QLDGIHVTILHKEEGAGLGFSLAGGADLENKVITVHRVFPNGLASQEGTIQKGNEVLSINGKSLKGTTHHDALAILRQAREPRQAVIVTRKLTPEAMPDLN
Sequence of MAST2, Q6P0Q8 (Q6P0Q8 1099-1202): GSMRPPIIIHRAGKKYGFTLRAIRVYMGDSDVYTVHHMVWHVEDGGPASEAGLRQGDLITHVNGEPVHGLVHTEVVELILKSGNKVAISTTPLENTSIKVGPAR
Sequence of DLG4_3, P78352 (P78352 306-403): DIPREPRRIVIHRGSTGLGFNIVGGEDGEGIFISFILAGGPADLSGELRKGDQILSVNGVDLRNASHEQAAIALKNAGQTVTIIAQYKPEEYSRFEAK

Binder | pKd [1] | pKd [2] | pKd [3] | pKd [4] | pKd [5] | pKd [6] | pKd [7] | pKd [8] | pKd [9] | pKd [10] | pKd [11] | pKd [12] | pKd [13] | pKd [14] | pKd [15] | pKd [16] | pKd [17] | pKd [18] | pKd [19] | pKd [20] | further results
EPQYQPGENL [SRC, P12931] | below the threshold | 3.59 | below the threshold | below the threshold | below the threshold | below the threshold | below the threshold | below the threshold | below the threshold | below the threshold | below the threshold | below the threshold | below the threshold | below the threshold | below the threshold | below the threshold | below the threshold | below the threshold | below the threshold | below the threshold | pKd [21]: below the threshold; pKd [22]: below the threshold; pKd [23]: below the threshold; pKd [24]: below the threshold; pKd [25]: below the threshold; pKd [26]: below the threshold; pKd [27]: below the threshold
DGVNEKVSCV [HTR2A, P28223] | below the threshold | 4 | 3.84 | 3.69 | below the threshold | below the threshold | below the threshold | below the threshold | 3.74 | below the threshold | below the threshold | below the threshold | below the threshold | below the threshold | 4.81 | below the threshold | 3.78 | below the threshold | 4.52 | below the threshold | pKd [21]: below the threshold; pKd [22]: below the threshold; pKd [23]: 6; pKd [24]: 4.86; pKd [25]: 3.64; pKd [26]: 4.33; pKd [27]: 3.69
RSSGGDDFWF [KCNV1, Q6PIU1] | below the threshold | below the threshold | below the threshold | below the threshold | below the threshold | 3.64 | below the threshold | below the threshold | 4.21 | below the threshold | below the threshold | 4.59 | below the threshold | below the threshold | below the threshold | below the threshold | 4.1 | below the threshold | 4.61 | below the threshold | pKd [21]: below the threshold; pKd [22]: 4.43; pKd [23]: 4.37; pKd [24]: 4.35; pKd [25]: below the threshold; pKd [26]: below the threshold; pKd [27]: below the threshold
